# From publication PMC5582868, “BLADE-ON-PETIOLE proteins act in an E3 ubiquitin ligase complex to regulate PHYTOCHROME INTERACTING FACTOR 4 abundance” (eLife, 2017)
# T1: His-GST-PIF4 (Arabidopsis thaliana (Mouse-ear cress), UniProt Q8W2F3)
# T1 chain: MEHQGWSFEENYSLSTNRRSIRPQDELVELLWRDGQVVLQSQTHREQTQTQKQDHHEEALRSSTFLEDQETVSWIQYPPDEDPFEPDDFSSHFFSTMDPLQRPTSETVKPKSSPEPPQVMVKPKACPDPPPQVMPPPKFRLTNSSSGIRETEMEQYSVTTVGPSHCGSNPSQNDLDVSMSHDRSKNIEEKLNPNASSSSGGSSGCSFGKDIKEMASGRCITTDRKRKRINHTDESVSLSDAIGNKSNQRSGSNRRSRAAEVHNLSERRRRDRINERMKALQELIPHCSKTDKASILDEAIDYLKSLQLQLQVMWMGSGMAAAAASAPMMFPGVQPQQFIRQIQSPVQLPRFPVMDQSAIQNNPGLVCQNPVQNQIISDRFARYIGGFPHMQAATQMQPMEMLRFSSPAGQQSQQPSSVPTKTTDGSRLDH
# T2: His-MBP-BOP2 (Arabidopsis thaliana, UniProt Q9ZVC2 1-491)
# T2 construct: BLADE-ON-PETIOLE 2 (BOP2), Arabidopsis thaliana; source: Escherichia coli BL21, purified (Ni-NTA Agarose)
# T2 sequence (looked up): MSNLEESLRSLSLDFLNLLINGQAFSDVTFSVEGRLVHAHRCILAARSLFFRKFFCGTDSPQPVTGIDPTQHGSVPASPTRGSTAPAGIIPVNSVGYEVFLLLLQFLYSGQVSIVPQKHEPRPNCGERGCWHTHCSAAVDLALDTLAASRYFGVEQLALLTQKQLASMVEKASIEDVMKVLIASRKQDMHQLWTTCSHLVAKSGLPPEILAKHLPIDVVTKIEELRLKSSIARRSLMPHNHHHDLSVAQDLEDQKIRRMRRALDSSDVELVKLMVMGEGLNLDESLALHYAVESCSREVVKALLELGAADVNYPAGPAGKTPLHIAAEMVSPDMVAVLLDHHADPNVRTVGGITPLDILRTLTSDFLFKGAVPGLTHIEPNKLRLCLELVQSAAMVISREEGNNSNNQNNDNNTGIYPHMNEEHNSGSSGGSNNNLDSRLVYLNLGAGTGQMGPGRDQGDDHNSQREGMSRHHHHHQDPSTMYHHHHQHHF
# Tests used:
# His-GST-PIF4 = molecular target: T1, His-GST-PIF4; assay: GST pulldown
# His-MBP-BOP2 = molecular target: T2, His-MBP-BOP2; assay: pull-down; 1 µg GST-PIF4 on Glutathione Sepharose 4B beads; 1 µg MBP or MBP-BOP2 added in 300 µl binding buffer (50 mM Tris-Cl pH 7.6, 100 mM NaCl, 1 mM EDTA, 1% Triton X-100, 0.5 mM DTT, 5% glycerol), 4°C, 2 hr; blot with anti-MBP; conditions: both partners purified
binding result (His-GST-PIF4),binding result (His-MBP-BOP2),Binder
binds,,His-MBP-BOP2 (protein) MSNLEESLRSLSLDFLNLLINGQAFSDVTFSVEGRLVHAHRCILAARSLFFRKFFCGTDSPQPVTGIDPTQHGSVPASPTRGSTAPAGIIPVNSVGYEVFLLLLQFLYSGQVSIVPQKHEPRPNCGERGCWHTHCSAAVDLALDTLAASRYFGVEQLALLTQKQLASMVEKASIEDVMKVLIASRKQDMHQLWTTCSHLVAKSGLPPEILAKHLPIDVVTKIEELRLKSSIARRSLMPHNHHHDLSVAQDLEDQKIRRMRRALDSSDVELVKLMVMGEGLNLDESLALHYAVESCSREVVKALLELGAADVNYPAGPAGKTPLHIAAEMVSPDMVAVLLDHHADPNVRTVGGITPLDILRTLTSDFLFKGAVPGLTHIEPNKLRLCLELVQSAAMVISREEGNNSNNQNNDNNTGIYPHMNEEHNSGSSGGSNNNLDSRLVYLNLGAGTGQMGPGRDQGDDHNSQREGMSRHHHHHQDPSTMYHHHHQHHF
,binds,"His-GST-PIF4 (natural protein, Arabidopsis thaliana, UniProt Q8W2F3 1-430, looked up, also called glutathione S-transferase (GST) tagged PIF4; source: Escherichia coli BL21, purified (Ni-NTA Agarose)) MEHQGWSFEENYSLSTNRRSIRPQDELVELLWRDGQVVLQSQTHREQTQTQKQDHHEEALRSSTFLEDQETVSWIQYPPDEDPFEPDDFSSHFFSTMDPLQRPTSETVKPKSSPEPPQVMVKPKACPDPPPQVMPPPKFRLTNSSSGIRETEMEQYSVTTVGPSHCGSNPSQNDLDVSMSHDRSKNIEEKLNPNASSSSGGSSGCSFGKDIKEMASGRCITTDRKRKRINHTDESVSLSDAIGNKSNQRSGSNRRSRAAEVHNLSERRRRDRINERMKALQELIPHCSKTDKASILDEAIDYLKSLQLQLQVMWMGSGMAAAAASAPMMFPGVQPQQFIRQIQSPVQLPRFPVMDQSAIQNNPGLVCQNPVQNQIISDRFARYIGGFPHMQAATQMQPMEMLRFSSPAGQQSQQPSSVPTKTTDGSRLDH"
